Our source for the Kd values is patent publication US20200157151A1, “PEPTIDE COMPOUNDS, CONJUGATE COMPOUNDS AND USES THEREOF FOR TREATING INFLAMMATORY DISEASES” (TRANSFERT PLUS, S.E.C., priority 2017, published 2020).

The assay addresses Human recombinant Sortilin chimera protein from R&D Systems (#3154-ST) (human) (UniProt Q99523). In words: SPR (Biacore), Sortilin immobilized on CM5 chip, ligand injected.

The term Kd denotes the constant that tells how readily two partners part at equilibrium.

Chain of Human recombinant Sortilin chimera protein from R&D Systems (#3154-ST) (human) (Q99523 78-755, change not shown): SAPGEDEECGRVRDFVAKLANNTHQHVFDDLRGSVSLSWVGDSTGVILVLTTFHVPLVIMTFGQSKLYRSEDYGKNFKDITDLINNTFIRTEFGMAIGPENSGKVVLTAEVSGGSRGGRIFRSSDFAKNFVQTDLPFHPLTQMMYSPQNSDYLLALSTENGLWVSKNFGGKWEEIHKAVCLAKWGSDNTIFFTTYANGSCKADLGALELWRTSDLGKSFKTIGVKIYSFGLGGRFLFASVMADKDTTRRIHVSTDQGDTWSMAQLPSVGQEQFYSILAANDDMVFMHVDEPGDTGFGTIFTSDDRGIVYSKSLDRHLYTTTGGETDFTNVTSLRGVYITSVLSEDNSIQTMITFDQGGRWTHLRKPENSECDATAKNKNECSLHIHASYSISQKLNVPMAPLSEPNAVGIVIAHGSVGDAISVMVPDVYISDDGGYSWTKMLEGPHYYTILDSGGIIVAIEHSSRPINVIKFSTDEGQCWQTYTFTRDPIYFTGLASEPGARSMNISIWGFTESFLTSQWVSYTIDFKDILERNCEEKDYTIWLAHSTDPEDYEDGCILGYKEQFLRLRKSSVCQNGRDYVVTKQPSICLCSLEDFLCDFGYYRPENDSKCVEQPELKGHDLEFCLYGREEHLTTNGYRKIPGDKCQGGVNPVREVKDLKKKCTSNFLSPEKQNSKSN

In the case of “Neurotensin, P30990 151-163 (peptide; modification not given)”, the Kd came out at 0.117 µM.

“Receptor-Associated Protein (RAP) (ligand)”: the Kd worked out at 0.0042 µM.
